Measurements published in patent publication CN117990904A.

Target: A型FMDV毒株
Assay: cell-based or functional assay

B1: A型口蹄疫病毒中和抗体Ab1 (VHH)
VHH: QVQLQESGGGLVQAGGSLRLSCVYSGFTFGHYSMGWYRQAPGKEREFVAAIRRSDGSTDYADSTVKGRFTISRDNAKKTVYLQMNSLKPEDTAVYYCATVRRVATLSGSSSWGQGTQVTVSS
Neu 50 (病毒中和试验): 1.2 µmol/L
